The record followed here is patent publication US20160122768A1 (LA JOLLA INSTITUTE FOR ALLERGY AND IMMUNOLOGY, published 2016).

B2: YES (endogenous, from RA FLS lysates) (enzyme)
chain: not shown

The target in assay [1] is B2. The assay can be described thus: substrate-trapping pull-down of RA FLS lysates with agarose-bound S-tagged iPTPκ-D1051A, Western blotting. How it is done:
(§1) Accordingly, cDNA (codon optimized for expression in E. coli [Genscript, Piscataway, N.J.]) encoding a substrate-trapping mutant of the catalytic domain of RPTPκ (iPTPK-D1051A, aa865-1156 of NP_002835.2) was cloned into the pET30c vector. S-tagged-iPTPK-D1051A was isolated from E. coli using S-protein agarose (EMD Millipore). RA FLS were lysed in RIPA buffer containing 10 μg/mL aprotinin, 10 μg/mL leupeptin, 10 μg/mL soybean trypsin inhibitor, 1 mM phenylmethylsulfonyl fluoride and 5 mM iodoacetamide. Lysates were treated with 10 mM dithiothreitol for 10 min, and then diluted 10-fold in buffer containing 25 mM Tris-HCl pH 7.6, 150 mM NaCl and 1 mM ethylenediaminetetraacetic acid. Agarose-bound S-tagged-iPTPκ-D1051A was incubated with RA FLS lysates for 3 hr at 4° C., washed in the dilution buffer, and subjected to Western blotting.

In assay [2] the target is FYN (endogenous, from RA FLS lysates) (human, UniProt P06241 2-537, limits assumed). Described as above. How it is done:
as §1

Assay [3] concerns the target T1, C-terminally HA-tagged wild type (WT) RPTPκ (NM 008983.2), full-length, immunoprecipitated from COS-1 cells (UniProt P35822 26-1457).
T1 construct: It was held on anti-HA immunoprecipitate beads in the assay; also called HA-tagged WT RPTPκ; full-length RPTPk; not shown: C-terminal HA tag
T1 sequence (looked up): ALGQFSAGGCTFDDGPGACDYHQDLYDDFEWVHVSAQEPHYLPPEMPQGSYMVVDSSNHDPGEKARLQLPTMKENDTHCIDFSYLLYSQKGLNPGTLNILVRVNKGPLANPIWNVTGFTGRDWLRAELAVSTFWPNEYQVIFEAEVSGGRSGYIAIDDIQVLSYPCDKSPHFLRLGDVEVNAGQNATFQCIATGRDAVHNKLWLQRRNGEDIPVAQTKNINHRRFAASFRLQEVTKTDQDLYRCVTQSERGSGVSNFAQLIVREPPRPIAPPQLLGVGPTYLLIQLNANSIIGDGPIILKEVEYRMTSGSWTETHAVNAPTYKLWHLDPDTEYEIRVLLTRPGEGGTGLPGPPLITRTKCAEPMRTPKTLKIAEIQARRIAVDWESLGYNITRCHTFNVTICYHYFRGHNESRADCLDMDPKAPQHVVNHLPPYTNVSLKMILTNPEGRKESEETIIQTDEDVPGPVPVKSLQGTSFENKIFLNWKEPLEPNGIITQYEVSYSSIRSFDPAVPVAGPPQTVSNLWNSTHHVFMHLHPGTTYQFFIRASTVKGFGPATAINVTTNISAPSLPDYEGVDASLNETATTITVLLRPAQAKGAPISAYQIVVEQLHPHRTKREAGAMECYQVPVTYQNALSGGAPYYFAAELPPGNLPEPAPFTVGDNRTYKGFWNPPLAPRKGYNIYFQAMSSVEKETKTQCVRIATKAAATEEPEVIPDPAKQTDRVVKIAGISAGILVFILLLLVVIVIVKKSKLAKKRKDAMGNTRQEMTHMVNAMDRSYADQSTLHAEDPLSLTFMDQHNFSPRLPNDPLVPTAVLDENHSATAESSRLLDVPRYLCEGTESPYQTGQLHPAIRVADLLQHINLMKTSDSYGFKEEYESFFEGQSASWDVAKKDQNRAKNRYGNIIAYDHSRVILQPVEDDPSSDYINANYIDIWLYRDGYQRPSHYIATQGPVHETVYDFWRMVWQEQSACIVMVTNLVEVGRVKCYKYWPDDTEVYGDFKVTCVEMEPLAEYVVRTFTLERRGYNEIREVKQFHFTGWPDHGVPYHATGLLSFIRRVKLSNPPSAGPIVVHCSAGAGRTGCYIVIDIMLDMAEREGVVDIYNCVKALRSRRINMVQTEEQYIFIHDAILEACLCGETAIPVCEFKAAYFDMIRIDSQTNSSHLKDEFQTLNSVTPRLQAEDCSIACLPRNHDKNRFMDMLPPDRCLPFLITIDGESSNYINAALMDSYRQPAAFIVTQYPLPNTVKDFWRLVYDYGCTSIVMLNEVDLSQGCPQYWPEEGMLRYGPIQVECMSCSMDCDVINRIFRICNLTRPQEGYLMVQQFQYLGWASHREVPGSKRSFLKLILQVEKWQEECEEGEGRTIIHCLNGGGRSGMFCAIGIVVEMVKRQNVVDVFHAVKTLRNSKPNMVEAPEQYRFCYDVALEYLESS
The assay can be described thus: pull-down of RA FLS lysates with immunoprecipitated HA-tagged RPTPκ, Western blotting. Here is the method:
In vitro Pull-Down Assay. HA-tagged WT RPTPκ was overexpressed in COS-1 cells. Cells were lysed in THE buffer (20 mM Tris-HCl pH 7.5, 150 mM NaCl, 5 mM EDTA pH 8.0 and 1% NP-40) containing 10 μg/mL aprotinin, 10 μg/mL leupeptin, 10 μg/mL soybean trypsin inhibitor, and 1 mM phenylmethylsulfonyl fluoride. RPTPκ was immunoprecipitated using anti-HA antibody (Covance, Princeton, N.J.). RA FLS were lysed in RIPA buffer containing 10 μg/mL aprotinin, 10 μg/mL leupeptin, 10 μg/mL soybean trypsin inhibitor, 1 mM phenylmethylsulfonyl fluoride and 5 mM iodoacetamide. Lysates were treated with 10 mM dithiothreitol for 10 min, and then diluted 10-fold in buffer containing 25 mM Tris-HCl pH 7.6, 150 mM NaCl and 1 mM ethylenediaminetetraacetic acid. Immunoprecipitates were incubated with RA FLS lysates for 3 hr at 4° C., washed in the dilution buffer, and subjected to Western blotting.
We next investigated if RPTPk directly interacts with and/or dephosphorylates SFKs. HA-tagged RPTPκ was immunoprecipitated from COS-1 cells and incubated in vitro with RA FLS lysates, and pull-down was subjected to Western blotting. Both full-length RPTPk immunoprecipitated from COS-1 cells and a recombinant substrate-trapping mutant of the RPTPk catalytic domain (iPTPk-D1051A) precipitated SRC from RA FLS lysates in pull-down assays, but not YES or FYN (SFKs also expressed in FLS).
Background: In western blotting, separated proteins are transferred to a membrane and probed.

FYN (endogenous, from RA FLS lysates), sequence (P06241 2-537 limits assumed): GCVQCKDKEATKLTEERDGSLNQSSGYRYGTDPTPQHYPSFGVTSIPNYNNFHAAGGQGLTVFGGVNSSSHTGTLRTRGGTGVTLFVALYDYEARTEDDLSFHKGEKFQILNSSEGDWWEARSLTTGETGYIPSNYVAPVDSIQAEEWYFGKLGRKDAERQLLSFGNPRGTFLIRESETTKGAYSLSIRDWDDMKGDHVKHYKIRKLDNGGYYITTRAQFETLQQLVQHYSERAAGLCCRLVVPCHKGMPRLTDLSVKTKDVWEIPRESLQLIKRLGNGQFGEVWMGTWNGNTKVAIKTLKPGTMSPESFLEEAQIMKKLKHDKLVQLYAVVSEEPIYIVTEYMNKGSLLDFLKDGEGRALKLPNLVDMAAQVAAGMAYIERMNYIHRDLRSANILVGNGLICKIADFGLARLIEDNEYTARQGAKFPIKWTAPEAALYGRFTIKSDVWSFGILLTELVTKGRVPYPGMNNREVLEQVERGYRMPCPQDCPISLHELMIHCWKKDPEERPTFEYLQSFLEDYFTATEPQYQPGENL

B1: S-tagged-iPTPκ-D1051A, substrate-trapping mutant of the catalytic domain of RPTPκ (aa865-1156 of NP_002835.2) (enzyme, not shown: small tags and cut ends)
chain: HPAIRVADLLQHINLMKTSDSYGFKEEYESFFEGQSASWDVAKKDQNRAKNRYGNIIAYDHSRVILQPVEDDPSSDYINANYIDGYQRPSHYIATQGPVHETVYDFWRMIWQEQSACIVMVTNLVEVGRVKCYKYWPDDTEVYGDFKVTCVEMEPLAEYVVRTFTLERRGYNEIREVKQFHFTGWPAHGVPYHATGLLSFIRRVKLSNPPSAGPIVVHCSAGAGRTGCYIVIDIMLDMAEREGVVDIYNCVKALRSRRINMVQTEEQYIFIHDAILEACLCGETAIPVCEFK
notes: Numbering counts on NP_002835.2, which may differ from the canonical UniProt isoform; also called iPTPk-D1051A; iPTPK-D1051A
With B1, the binding result in assay [1] and in assay [2] was “no binding” each time.
As for B2, in assay [3], the binding result is “no binding”.
